Biological target: pyruvate kinase isozyme M2 (mouse (endogenous in splenic CD4+ T cells polarized into Th17 cells)) (UniProt P52480)
Test: cross-linking; Th17 cells treated with or without HCA for 24 h; cells washed with ice-cold PBS pH 8.0, disuccinimidyl suberate at 1 uM for 30 min at room temperature, quenched with 10 mM Tris, lysed, Western blot for monomeric and tetrameric PKM2

Sequence of pyruvate kinase isozyme M2, P52480 1-531 (enzyme; other documents disagree on this pair) (P52480 whole entry): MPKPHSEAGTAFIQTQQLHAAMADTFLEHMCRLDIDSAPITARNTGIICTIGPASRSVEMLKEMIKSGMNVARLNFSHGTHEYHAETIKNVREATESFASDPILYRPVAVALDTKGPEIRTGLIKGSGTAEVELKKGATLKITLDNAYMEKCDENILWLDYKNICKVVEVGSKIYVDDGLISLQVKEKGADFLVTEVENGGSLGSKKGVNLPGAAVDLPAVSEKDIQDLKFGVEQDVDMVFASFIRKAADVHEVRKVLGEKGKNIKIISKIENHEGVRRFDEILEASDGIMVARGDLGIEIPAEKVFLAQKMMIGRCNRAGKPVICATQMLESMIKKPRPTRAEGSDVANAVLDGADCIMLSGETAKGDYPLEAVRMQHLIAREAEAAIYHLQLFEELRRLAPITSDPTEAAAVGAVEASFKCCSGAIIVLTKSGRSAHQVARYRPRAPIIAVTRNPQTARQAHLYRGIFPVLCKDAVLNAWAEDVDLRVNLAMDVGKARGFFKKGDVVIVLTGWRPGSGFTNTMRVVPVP

pyruvate kinase isozyme M2, P52480 1-531 (enzyme; other documents disagree on this pair)
stoichiometry N: 4

Reference: paper PMC8178393
